The values below come from US20210047431A1 (DIACCURATE, published 2021).

Test [1] has as its target T1, recombinant human sPLA2-GIB (mature secreted form of group IB pancreatic phospholipase A2) (human, UniProt P04054 23-148). Briefly: cell-based or functional assay.
The target of test [2] is T1, recombinant human sPLA2-GIB (mature …). Briefly: indirect ELISA, coated antigen. The procedure: (§1) Microplate wells were typically coated with 100 ng of recombinant human sPLA2-GIB or pro-sPLA2-GIB in PBS pH 7.5, overnight at 4° C. Sample wells were washed three times with PBS containing 0.05% Tween 20. After final washing, sample wells were treated with blocking solution containing 1% bovine serum albumin (BSA) in PBS buffer for 60 min at room temperature. Following washing with PBS containing 0.05% Tween 20, increasing amounts (10 ng/mL up to 3 μg/mL) of mAb directed against human pro-sPLA2-GIB or sPLA2-GIB were added to antigen-coated wells. and incubated for 120 min at room temperature. Following washing with PBS containing 0.05% Tween 20, the binding of mAb was detected with an HRP-conjugated goat anti-mouse IgG or IgA polyclonal antibody reagent and developed using colorimetric substrate. The dependency of the signals on the […] was analyzed with a 4-parameter fit analysis using Prism™ software (Graph Pad) and reported as EC50.

The target is the same in test [3]. Description: cell-based or functional assay. This is another data set of the same source.
The target is the same in test [4]. Briefly: competition ELISA on coated sPLA2-IB; competitor biotinylated 1C11. The procedure: (§2) Epitope mapping of the #14G9, #1C11, #8G11 and #7A10 mAbs was evaluated by competition ELISA. Biotinylated mAbs #14G9, #1C11, #8G11 or #7A10 were added to sPLA2-GIB or pro-sPLA2-GIB coated plates in the presence of an excess of un-biotinylated mAb. Bound mAbs were then detected with Streptavidin-HRP conjugate. Results were expressed as percentage of signal, after subtraction of the autologous competition, with 0% representing maximum competition and 100% no competition (Table 4).

For test [5] the target is unchanged. Description: competition ELISA on coated sPLA2-IB; competitor biotinylated 7A10. The procedure: as §2
Background: In an ELISA, binding on a coated surface is turned into a signal by an enzyme label.

The target of test [6] is T2, recombinant human pro-sPLA2-GIB (pro form of group IB pancreatic phospholipase A2) (human, UniProt P04054 16-148).
T2 construct: also called pro-sPLA2-IB; proPLA2-GIB
T2 sequence (P04054 16-148): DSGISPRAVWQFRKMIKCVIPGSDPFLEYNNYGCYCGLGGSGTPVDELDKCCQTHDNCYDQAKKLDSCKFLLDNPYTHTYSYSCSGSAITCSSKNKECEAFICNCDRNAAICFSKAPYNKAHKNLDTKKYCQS
Briefly: competition ELISA on coated pro-sPLA2-IB; competitor biotinylated 1C11. The procedure:
as §2

The target of test [7] is T2, recombinant human pro-sPLA2-GIB (pro …). Briefly: competition ELISA on coated pro-sPLA2-IB; competitor biotinylated 7A10. The procedure:
as §2

Test [8] shares this target. Briefly: competition ELISA on coated pro-sPLA2-IB; competitor biotinylated 8G11. The procedure: as §2
Test [9] concerns the target T1, recombinant human sPLA2-GIB (mature …). Description: SPR (BIAcore 2000), mAb captured on anti-mouse IgG, antigen in solution. The procedure:
(§3) The affinity constant (KD) of the pro-sPLA2-GIB and sPLA2-GIB binding to the selected antibodies described above were determined by surface kinetics on a real-time biosensor surface plasmon resonance assay (BIAcore™). More specifically, the affinity of the antibodies for human pro-sPLA2-GIB and sPLA2-GIB was measured using a BIAcore® 2000. The antibody was captured on an anti-mouse IgG surface and exposed to various concentrations of recombinant pro-sPLA2-GIB and sPLA2-GIB protein. Kinetic analysis using BlAevaluation™ software was performed to obtain the association and dissociation rate constants.
as §3, with “constants (Table 3).” for “constants.”
On the technique in general: Surface plasmon resonance follows binding to a sensor surface in real time, without labels.

Test [10] concerns the target T2, recombinant human pro-sPLA2-GIB (pro …). Description: indirect ELISA, coated antigen; indirect ELISA, pro-sPLA2-IB coated on the plate. The procedure: as §1
The target of test [11] is T1, recombinant human sPLA2-GIB (mature …). Description: competitive ELISA: mAb premixed with serial dilutions of soluble antigen, free mAb read on antigen-coated plate. The procedure: (§4) Binding affinities of the antibodies to pro-sPLA2-GIB and sPLA2-GIB were measured by plate-based competition immunoassay. For the competition ELISA, briefly, constant amounts of antibody at different levels were premixed with serial dilutions of antigen protein, human sPLA2-GIB or pro-sPLA2-GIB, ranging from 0 to 10 μg/ml, and incubated for two hours at room temperature to reach pseudo-binding equilibrium between the antibody and antigen. These solutions were then transferred to 96-well sPLA2-GIB or pro-sPLA2-GIB pre-coated plates to allow the free-antibody in the mixtures to bind to plate-coated sPLA2-GIB or pro-sPLA2-GIB. The plates were typically coated with 30 to 100 ng of human sPLA2-GIB or pro-sPLA2-GIB protein in PBS solution overnight at 4° C. followed by BSA nonspecific blocking. After washing off excess antibody in solution, plate-bound antibodies were detected with an HRP-conjugated goat anti-mouse IgG or IgA polyclonal antibody reagent and developed using colorimetric substrate. The dependency of the signals on the concentrations of antigen in solution was analyzed with a 4-parameter fit analysis using Prism™ software (Graph Pad) and reported as IC50.
The respective binding affinities of the antibodies to human pro-sPLA2-GIB and human sPLA2-GIB were measured by plate-based competition immunoassay. Briefly, constant amounts of antibody at different levels were premixed with serial dilutions of antigen proteins to reach pseudo-binding equilibrium between the antibody and antigen. These solutions were then transferred to antigen pre-coated plates to allow the free-antibody in the mixtures to bind to plate-coated sPLA2-GIB or pro-sPLA2-GIB. Plate-bound antibodies were detected with an HRP-conjugated polyclonal antibody. Data were fitted with a 4PL logistic non-linear regression model and the relative IC50 values were estimated from the model (Table 2).

The target of test [12] is T2, recombinant human pro-sPLA2-GIB (pro …). Description: SPR (BIAcore 2000), mAb captured on anti-mouse IgG, antigen in solution; SPR, mAb captured, pro-sPLA2-GIB in solution. The procedure:
as §3
as §3, with “constants (Table 3).” for “constants.”

Test [13] shares this target. Description: competitive ELISA: mAb premixed with serial dilutions of soluble antigen, free mAb read on antigen-coated plate; competitive ELISA, soluble pro-sPLA2-IB. The procedure:
as §4, with “The plates were typically coated with 30 to 100 ng of human sPLA2-GIB or pro-sPLA2-GIB protein in PBS solution overnight at 4° C. followed by BSA nonspecific blocking.” left out
The respective binding affinities of the antibodies to human pro-sPLA2-GIB and human sPLA2-GIB were measured by plate-based competition immunoassay. […] Plate-bound antibodies were detected with an HRP-conjugated polyclonal antibody. […]

T1 sequence (P04054 23-148): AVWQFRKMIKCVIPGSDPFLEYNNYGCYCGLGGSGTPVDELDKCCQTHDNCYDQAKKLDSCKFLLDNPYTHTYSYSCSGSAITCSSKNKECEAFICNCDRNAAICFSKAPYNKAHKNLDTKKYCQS

B1: #14G9 (antibody, IgG1, V domains shown)
VH: QVQLQQPGAELVKPGASVKLSCKASGYTFTNYWIHWVKRRPGQGLEWIGNIDPSDTRTHYNQKFKDKATLAVDKSSSTAYMQLSSLTSEDSAVFYCARQTLYYEALDYWGQGTTLTVSS
VL: DIVMTQSHKLMSTSVGDRVSITCKASQDVSTAVAWYQEKPGQSPKLLIYWASTRHTGVPNRFTGSRSGTDYTLTISSVQAEDLALYYCQQDYSTPPTFGAGTKLELKR
notes: also called monoclonal antibody 14G9; #14G9 mAb
For the molecule B1, in test [1], the “Enzymatic Activity Inhibition (% of Control)” value stood at 5%. Moreover, the EC50 (commonly the concentration giving half of the maximal effect) in test [2] came to 6 nM; in test [10], 158 nM. Further, in test [3], the “IC50 of inhibition of sPLA2-GIB enzymatic activity (sPLA2 Activity in U/mL against #14G9 mAb in Log M, 4PL fit)” value is 2.3 nM. For the same molecule, the percentage of signal in test [4] worked out at 64%; in test [5], 12%; in test [6] it was 69%; in test [7], 141%; in test [8] it was 73%. The Kd (as a rule, the equilibrium constant for the complex coming apart) was determined as 0.338 nM in [9] and 174 nM in [12]. The koff (usually the rate constant with which the complex falls apart) is 0.000549 s⁻¹ in [9] and 0.0506 s⁻¹ in test [12]. The kon – broadly, a measure of how fast the partners come together – in test [9] amounted to 1.63e+06 M⁻¹ s⁻¹; in test [12] it was 301000 M⁻¹ s⁻¹. Besides, the values for the t1/2 in test [9] and in test [12] were 30.4 min and 0.3 min, respectively. Also, the IC50 (usually the concentration that gives 50% inhibition) in test [11] is 1 nM; in test [13], 109 nM.
